The target of one assay is ANG variant H13A (human, UniProt P03950 25-147, H13A). The assay is described as follows: ELISA. (ELISA stands for enzyme-linked immunosorbent assay.)
For assay [1], the target named is Angiogenin (ANG), human recombinant (human, UniProt P03950 25-147). The assay is described as follows: equilibrium dialysis.
Angiogenin (ANG), human recombinant, sequence (P03950 25-147): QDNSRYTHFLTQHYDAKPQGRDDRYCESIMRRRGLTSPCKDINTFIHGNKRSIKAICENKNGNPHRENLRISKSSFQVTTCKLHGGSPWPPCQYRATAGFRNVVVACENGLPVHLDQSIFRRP

ANG variant H13A, sequence (P03950 25-147 H37A): as the sequence (P03950 25-147) above, with H13A counted along it

For the molecule TSSEYDSILVEINKR [PLXNB2 peptide hplb2-15-06], the binding result (in the assay with ANG variant H13A; in assay [1]) was “binds” each time.

These data come from paper PMC5847377 (Cell, 2017).
